What was measured:
[1] = Enhancement of the effect of the QS21/MPL adjuvant by other cytokines
P1983 cells = experiment: IL12 dose curve: CTL activity in mice receiving peptide P198 + DQS21/3D-MPL + various doses of IL12; assay type: in vivo, DBA/2 mice; conditions: with P198 peptide and DQS21/3D-MPL
Experimental: DBA/2 mice were injected s.c. in the two footpads with 50 μg of P198 peptide ([…]), corresponding to the antigen expressed by the P198 TUM—clone (Sibille et al., J. Exp. Med., 1990: 172, 35-45), mixed with the DQS21/3D-MPL adjuvant (adjuvant) 100 μl final. […] This murine IL12 was purified from the supernatant of transfected P1HTR cells as described in Gajewski et al. (J. Immunol. 1995, 154: 5637-5648). […] On day 16, the mice were bled and stimulation of blood lymphocytes was performed by mixing 3×10^5 Ficoll purified lymphocytes with […] stimulating cells (100 Gy) and 2×10^6 irradiated normal syngeneic spleen cells (30 Gy) as feeder cells. The stimulating cells were P1983 cells, an azaguanine-resistant variant derived from the P198 TUM-clone. The cells were incubated in 48-well plates in a final volume of 0,8 ml MLTC medium described in Warnier et al. (Int. J. Cancer, 1996, 67, 303-310). Seven days later, CTL activity was measured in a standard chromium-release assay using 1,000 5^1Cr-labelled targets. […] Specific lytic units were calculated by subtracting the values obtained with the negative targets (usually less than 0,3 LU) from those obtained with the positive target. Mice were scored as ± when the LU detected were comprised between 0,1 and 1; + when LU were comprised between 1 and 10; and ++ above 10 LU. […]

[2] = mouse, in vivo

Row | Molecule | enhancement of the effect of the QS21/MPL adjuvant [1] | effect of IL12 on CTL activity (P1983 cells; IL12 dose/mouse/day 10 ng (100U)) | effect of IL12 on CTL activity (P1983 cells; IL12 only 30 ng (so in the source)) | systemic toxicity [2]
1 | IL-6: cytokine | unable to enhance |  |  | 
2 | GM-CSF: cytokine | unable to enhance |  |  | 
3 | IFN-γ: cytokine (protein, UniProt P01579 24-161, looked up) Interferon gamma: QDPYVKEAENLKKYFNAGHSDVADNGTLFLGILKNWKEESDRKIMQSQIVSFYFKLFKNFKDDQSIQKSVETIKEDMNVKFFNSNKKKRDDFEKLTNYSVTDLNVQRKAIHELIQVMAELSPAAKTGKRKRSQMLFRG | unable to enhance |  |  | 
4 | IL-7: cytokine (protein, UniProt P13232 26-177, looked up) Interleukin-7: DCDIEGKDGKQYESVLMVSIDQLLDSMKEIGSNCLNNEFNFFKRHICDANKEGMFLFRAARKLRQFLKMNSTGDFDLHLLKVSEGTTILLNCTGQVKGRKPAALGEAQPTKSLEENKSLKEQKKLNDLCFLKRLLQEIKTCWNKILMGTKEH | unable to enhance |  |  | 
5 | IL12: murine IL12 purified from the supernatant of transfected P1HTR cells; heterodimeric cytokine (protein, UniProt P43431 23-215; P43432 23-335, looked up) Interleukin-12 subunit alpha: RVIPVSGPARCLSQSRNLLKTTDDMVKTAREKLKHYSCTAEDIDHEDITRDQTSTLKTCLPLELHKNESCLATRETSSTTRGSCLPPQKTSLMMTLCLGSIYEDLKMYQTEFQAINAALQNHNHQQIILDKGMLVAIDELMQSLNHNGETLRQKPPVGEADPYRVKMKLCILLHAFSTRVVTINRVMGYLSSA Interleukin-12 subunit beta: MWELEKDVYVVEVDWTPDAPGETVNLTCDTPEEDDITWTSDQRHGVIGSGKTLTITVKEFLDAGQYTCHKGGETLSHSHLLLHKKENGIWSTEILKNFKNKTFLKCEAPNYSGRFTCSWLVQRNMDLKFNIKSSSSSPDSRAVTCGMASLSAEKVTLDQRDYEKYSVSCQEDVTCPTAEETLPIELALEARQQNKYENYSTSFFIRDIIKPDPPKNLQMKPLKNSQVEVSWEYPDSWSTPHSYFSLKFFVRIQRKKEKMKETEEGCNQKGAFLVEKTSTEVQCKGGNVCVQAQDRYYNSSCSKWACVPCRVRS |  | nearly fully maintained | disappeared | largely reduced but not totally absent

Reference: US6375945B1, “Adjuvant compositions for vaccines” (SmithKline Beecham Biologicals s.a., priority 1997, dated 2002)
